Measured values taken from patent publication US20190127444A1 (NEW YORK UNIVERSITY, published 2019).

Columns and labels:
[1] = molecular target: T1, recombinant Protein A (ProSpec-TanyTechnoGene Ltd.), biotinylated (S. aureus, UniProt P38507 37-327); experiment: ELISA, biotinylated Protein A on streptavidin plate
T1 construct: also called SpA

[2] = molecular target: T2, LukE, recombinant protein used for HDX mapping (Staphylococcus aureus, UniProt Q2FXB0 24-306); experiment: HDX-MS
T2 construct: also called LukE (HDX)
T2 chain: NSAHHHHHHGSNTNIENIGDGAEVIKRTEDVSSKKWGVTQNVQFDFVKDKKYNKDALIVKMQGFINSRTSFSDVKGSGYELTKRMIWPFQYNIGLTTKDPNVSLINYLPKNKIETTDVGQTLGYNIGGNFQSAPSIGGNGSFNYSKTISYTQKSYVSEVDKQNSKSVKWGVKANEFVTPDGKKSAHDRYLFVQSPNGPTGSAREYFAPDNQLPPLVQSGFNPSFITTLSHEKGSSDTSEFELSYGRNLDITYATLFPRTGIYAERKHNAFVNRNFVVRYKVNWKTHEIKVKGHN

[3] = molecular target: T3, LukAB toxoid variant (LukA E323A), recombinant polyhistidine-tagged (S. aureus, UniProt Q2FFA2 28-351; P21224 30-338); experiment: BLI, FN3 protein on streptavidin pins, LukAB in solution
T3 sequence 1: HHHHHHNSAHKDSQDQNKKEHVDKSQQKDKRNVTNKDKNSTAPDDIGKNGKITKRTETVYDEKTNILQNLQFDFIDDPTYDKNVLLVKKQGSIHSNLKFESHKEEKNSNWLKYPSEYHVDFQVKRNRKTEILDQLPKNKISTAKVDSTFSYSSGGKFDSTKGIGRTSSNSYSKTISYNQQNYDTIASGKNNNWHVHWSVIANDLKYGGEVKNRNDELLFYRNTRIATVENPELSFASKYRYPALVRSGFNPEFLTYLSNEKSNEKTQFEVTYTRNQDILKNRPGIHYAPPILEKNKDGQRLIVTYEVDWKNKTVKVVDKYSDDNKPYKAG
T3 sequence 2: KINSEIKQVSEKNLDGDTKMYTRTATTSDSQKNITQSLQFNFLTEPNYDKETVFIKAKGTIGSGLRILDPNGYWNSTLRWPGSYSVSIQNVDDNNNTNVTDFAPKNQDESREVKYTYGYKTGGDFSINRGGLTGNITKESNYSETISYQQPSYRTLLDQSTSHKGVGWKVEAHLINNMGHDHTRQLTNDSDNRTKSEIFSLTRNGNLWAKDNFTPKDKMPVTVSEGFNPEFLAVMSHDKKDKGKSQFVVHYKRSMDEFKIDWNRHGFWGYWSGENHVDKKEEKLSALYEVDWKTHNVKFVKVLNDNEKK

[4] = molecular target: T4, LukE, recombinant parental form with amino-terminal poly-histidine and streptavidin binding sequences (S. aureus); experiment: BLI, biotinylated LukE on streptavidin pins, Luk26 FN3 at 10 ug/mL
T4 chain: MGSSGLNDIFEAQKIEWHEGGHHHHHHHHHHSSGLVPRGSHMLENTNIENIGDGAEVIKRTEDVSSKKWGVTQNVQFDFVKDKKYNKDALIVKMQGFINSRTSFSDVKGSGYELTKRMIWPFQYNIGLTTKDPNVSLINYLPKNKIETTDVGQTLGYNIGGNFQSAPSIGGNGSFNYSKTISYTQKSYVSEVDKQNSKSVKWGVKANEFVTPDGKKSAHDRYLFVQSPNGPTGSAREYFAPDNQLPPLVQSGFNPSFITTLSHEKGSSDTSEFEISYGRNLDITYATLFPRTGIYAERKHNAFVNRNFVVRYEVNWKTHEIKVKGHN

TD peptide = experiment: ELISA, peptide captured on streptavidin
[5] = molecular target: T3, LukAB toxoid variant (LukA E323A), …; experiment: ELISA and neutralisation assay

B1: anti-LTA (Pagibaximab) PRASA A6 (Table 1 Construct 33) (antibody, human IgG1, kappa)
heavy: EVMLVESGGGLVQPKGSLKLSCAASGFTFNNYAMNWVRQAPGKGLEWVARIRSKSNNYATFYADSVKDRFTISRDDSQSMLYLQMNNLKTEDTAMYYCVRRGASGIDYAMDYWGQGTSLTVSSASTKGPSVFPLAPSSKSTSGGTAALGCLVKDYFPEPVTVSWNSGALTSGVHTFPAVLQSSGLYSLSSVVTVPSSSLGTQTYICNVNHKPSNTKVDKKVEPKSCDKTHTCPPCPAPPVAGPDVFLFPPKPKDTLMISRTPEVTCVVVDVSHEDPEVKFNWYVDGVEVHNAKTKPREEQYNSTYRVVSVLTVLHQDWLNGKEYKCKVSNAALPAPIAKTISKAKGQPREPQVYTLPPSRDELTKNQVSLTCLVKGFYPSDIAVEWESNGQPENNYKTTPPVLDSDGSFFLYSKLTVDKSRWQQGNVFSCSVMHEALHNRFTQKSLSLSPGK
light: DIVLSQSPAILSASPGEKVTMTCRASSSVNYMHWYQQKPGSSPKPWISATSNLASGVPARFSGSGSGTSYSLTISRVEAEDAATYYCQQWSSNPPTFGGGTMLEIKRTVAAPSVFIFPPSDEQLKSGTASVVCLLNNFYPREAKVQWKVDNALQSGNSQESVTEQDSKDSTYSLSSTLTLSKADYEKHKVYACEVTHQGLSSPVTKSFNRGEC
notes: also called LTA PRASA A6; PRASA A6 variant of pagibaximab
Does B1 bind [1]?
Result: no binding (tested: 10 µg/mL)

B2: Luk26 LukE binding FN3 domain (designed binder)
chain: LPAPKNLVVSRVTEDSARLSWTAPDAAFDSFHIEYAEPWVWGEAIVLTVPGSERSYDLTGLKPGTEYVVFIGGVKGGHNSTPLSAIFTT
Does B2 bind [2]?
Result: binds

B3: TENCON-His-SA (designed binder)
chain: MLPAPKNLVVSRVTEDSARLSWTAPDAAFDSFLIQYQESEKVGEAIVLTVPGSERSYDLTGLKPGTEYTVSIYGVKGGHRSNPLSAIFTTGGHHHHHHGGGLNDIFEAQKIEWHE
notes: also called parental control FN3 domain protein
Does B3 bind [3]?
Result: no binding (tested: 10 ug/mL)

B4: Luk26 FN3 protein with carboxyl-terminal poly-histidine sequence (designed binder)
chain: MLPAPKNLVVSRVTEDSARLSWTAPDAAFDSFHIEYAEPWVWGEAIVLTVPGSERSYDLTGLKPGTEYVVFIGGVKGGHNSTPLSAIFTTGGHHHHHH
Does B4 bind [4]?
Result: binds

B5: mAb 5133 (CR5133, IgG1 wt; Table 1 Construct 1) (antibody)
heavy: not shown
light: EIVLTQSPATLSLSPGERATLSCRASQSVSGYLGWYQQKPGQAPRLLIYGASSRATGIPDRFSGSGSGTDFTLTISRLEPEDFAVYYCQQYGSSPLTFGGGTKLEIKRTVAAPSVFIFPPSDEQLKSGTASVVCLLNNFYPREAKVQWKVDNALQSGNSQESVTEQDSKDSTYSLSSTLTLSKADYEKHKVYACEVTHQGLSSPVTKSFNRGEC
Does B5 bind (TD peptide)?
Result: no binding

B6: Luk17 LukAB binding FN3 domain (designed binder)
chain: LPAPKNLVVSRVTEDSARLSWTAPDAAFDSFWITYEEKFYRGEAIVLTVPGSERSYDLTGLKPGTEYKVWIVGVKGGQGSWPLSAIFTT
Does B6 bind [5]?
Result: binds
